From US20220332804A1 (CSL INNOVATION, published 2022)

Legend:
Test in all cases: SPR, antibody captured, C2 as analyte;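 further: biacore SPR at 37 °C, anti-C2 mAbs captured via goat anti-human IgG on CM5 chips, double-referenced sensorgrams fit to a 1:1 kinetic or steady-state model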
[1] = molecular target: T1, human C2 R434A (human, UniProt P06681 21-752)
T1 sequence: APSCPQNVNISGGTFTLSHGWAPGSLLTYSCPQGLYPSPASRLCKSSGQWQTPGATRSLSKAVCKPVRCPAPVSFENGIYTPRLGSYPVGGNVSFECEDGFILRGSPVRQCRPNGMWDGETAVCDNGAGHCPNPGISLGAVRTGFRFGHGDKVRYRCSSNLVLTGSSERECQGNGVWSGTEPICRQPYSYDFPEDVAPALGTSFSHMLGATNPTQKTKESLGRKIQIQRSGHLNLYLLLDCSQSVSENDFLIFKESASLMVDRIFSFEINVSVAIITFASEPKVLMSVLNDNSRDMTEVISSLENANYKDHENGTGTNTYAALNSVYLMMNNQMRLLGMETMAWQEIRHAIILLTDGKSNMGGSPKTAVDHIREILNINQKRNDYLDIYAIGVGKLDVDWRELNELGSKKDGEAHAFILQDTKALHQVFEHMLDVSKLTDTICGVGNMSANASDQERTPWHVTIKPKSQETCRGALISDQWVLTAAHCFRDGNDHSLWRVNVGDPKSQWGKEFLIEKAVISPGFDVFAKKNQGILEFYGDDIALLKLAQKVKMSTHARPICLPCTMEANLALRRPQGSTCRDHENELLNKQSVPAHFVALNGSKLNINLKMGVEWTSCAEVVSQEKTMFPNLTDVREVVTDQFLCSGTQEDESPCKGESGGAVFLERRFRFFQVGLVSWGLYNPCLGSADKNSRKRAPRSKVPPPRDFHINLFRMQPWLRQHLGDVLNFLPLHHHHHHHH

[2] = molecular target: T2, human C2 K443A (human, UniProt P06681 21-752)
T2 sequence: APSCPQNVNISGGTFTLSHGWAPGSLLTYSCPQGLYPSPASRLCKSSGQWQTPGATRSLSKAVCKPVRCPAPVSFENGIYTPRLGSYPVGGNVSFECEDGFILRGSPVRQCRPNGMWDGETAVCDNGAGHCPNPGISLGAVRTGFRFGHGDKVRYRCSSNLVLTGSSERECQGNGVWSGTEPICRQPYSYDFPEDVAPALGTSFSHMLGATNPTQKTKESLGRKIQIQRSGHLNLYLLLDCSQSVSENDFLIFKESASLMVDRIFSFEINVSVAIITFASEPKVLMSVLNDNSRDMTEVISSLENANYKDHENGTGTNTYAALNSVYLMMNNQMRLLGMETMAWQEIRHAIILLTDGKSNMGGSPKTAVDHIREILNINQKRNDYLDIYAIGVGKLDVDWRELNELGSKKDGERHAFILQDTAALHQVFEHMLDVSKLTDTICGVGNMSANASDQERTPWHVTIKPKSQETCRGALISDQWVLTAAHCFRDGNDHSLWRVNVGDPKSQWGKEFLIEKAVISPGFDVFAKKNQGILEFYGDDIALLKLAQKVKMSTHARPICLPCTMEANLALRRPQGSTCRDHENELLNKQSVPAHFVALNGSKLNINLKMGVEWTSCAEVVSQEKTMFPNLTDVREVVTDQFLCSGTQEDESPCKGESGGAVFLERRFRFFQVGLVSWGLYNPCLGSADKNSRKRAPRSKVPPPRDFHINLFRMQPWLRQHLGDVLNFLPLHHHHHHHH

[3] = molecular target: T3, human C2 A444S (human, UniProt P06681 21-752)
T3 sequence: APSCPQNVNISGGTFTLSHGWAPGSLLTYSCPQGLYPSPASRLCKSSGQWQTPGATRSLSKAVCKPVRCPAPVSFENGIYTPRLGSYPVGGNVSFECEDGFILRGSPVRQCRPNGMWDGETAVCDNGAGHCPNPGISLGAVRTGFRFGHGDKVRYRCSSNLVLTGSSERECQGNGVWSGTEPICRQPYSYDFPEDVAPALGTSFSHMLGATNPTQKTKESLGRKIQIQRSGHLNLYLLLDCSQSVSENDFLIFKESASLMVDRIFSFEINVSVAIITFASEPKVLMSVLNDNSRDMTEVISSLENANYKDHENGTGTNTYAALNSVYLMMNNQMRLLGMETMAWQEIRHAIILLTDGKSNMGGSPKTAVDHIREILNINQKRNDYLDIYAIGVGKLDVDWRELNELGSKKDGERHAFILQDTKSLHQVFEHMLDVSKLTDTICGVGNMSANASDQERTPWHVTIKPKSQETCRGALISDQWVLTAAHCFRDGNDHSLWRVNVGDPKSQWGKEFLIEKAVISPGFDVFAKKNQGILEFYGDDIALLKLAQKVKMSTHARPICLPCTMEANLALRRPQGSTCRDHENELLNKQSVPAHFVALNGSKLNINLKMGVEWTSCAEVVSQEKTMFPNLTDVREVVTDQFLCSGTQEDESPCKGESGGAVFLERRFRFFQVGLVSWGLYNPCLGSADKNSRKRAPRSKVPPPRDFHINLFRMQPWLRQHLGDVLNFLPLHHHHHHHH

[4] = molecular target: T4, human C2 H331A (human, UniProt P06681 21-752)
T4 sequence: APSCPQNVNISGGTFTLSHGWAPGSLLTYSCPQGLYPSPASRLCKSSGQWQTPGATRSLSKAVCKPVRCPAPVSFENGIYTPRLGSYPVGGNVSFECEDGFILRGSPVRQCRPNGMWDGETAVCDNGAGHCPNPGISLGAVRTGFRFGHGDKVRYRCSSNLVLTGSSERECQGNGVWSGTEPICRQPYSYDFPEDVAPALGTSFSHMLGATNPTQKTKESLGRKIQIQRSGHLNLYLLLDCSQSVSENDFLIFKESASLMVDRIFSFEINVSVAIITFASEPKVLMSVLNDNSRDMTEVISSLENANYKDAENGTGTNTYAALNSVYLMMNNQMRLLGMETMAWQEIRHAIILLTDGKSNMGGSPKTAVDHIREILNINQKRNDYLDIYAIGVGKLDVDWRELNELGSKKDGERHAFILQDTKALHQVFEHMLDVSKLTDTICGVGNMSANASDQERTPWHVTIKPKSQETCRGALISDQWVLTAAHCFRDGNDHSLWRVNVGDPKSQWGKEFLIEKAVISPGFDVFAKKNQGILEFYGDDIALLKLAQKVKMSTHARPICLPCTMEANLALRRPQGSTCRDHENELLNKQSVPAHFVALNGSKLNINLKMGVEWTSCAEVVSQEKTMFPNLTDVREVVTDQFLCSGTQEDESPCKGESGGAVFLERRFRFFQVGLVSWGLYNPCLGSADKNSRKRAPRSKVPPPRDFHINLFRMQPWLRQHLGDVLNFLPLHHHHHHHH

B1: RF16-226 (antibody, human IgG4 S228P, lambda)
heavy: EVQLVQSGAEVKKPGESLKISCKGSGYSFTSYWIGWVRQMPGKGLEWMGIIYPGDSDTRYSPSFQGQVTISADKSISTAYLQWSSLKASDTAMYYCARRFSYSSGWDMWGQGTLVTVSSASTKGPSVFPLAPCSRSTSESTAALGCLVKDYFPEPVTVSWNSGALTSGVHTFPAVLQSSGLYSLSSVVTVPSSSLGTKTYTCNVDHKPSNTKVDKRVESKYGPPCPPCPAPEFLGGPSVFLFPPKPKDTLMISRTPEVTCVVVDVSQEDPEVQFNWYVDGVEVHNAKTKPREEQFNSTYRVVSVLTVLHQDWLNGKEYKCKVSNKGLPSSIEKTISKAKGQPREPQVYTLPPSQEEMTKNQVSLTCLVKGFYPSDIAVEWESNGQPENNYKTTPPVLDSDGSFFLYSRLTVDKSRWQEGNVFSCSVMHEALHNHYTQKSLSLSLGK
light: SYELTQPPSVSVSPGQTARITCSGDALTSKYVAWYQQKSGLAPLLVIYEDTRRPSGIPAKFSGSSSGSVATLTISGAHGDDEADYYCYSTDASGHQRVFGGGTKLTVLSQPKAAPSVTLFPPSSEELQANKATLVCLISDFYPGAVTVAWKADGSPVKAGVETTKPSKQSNNKYAASSYLSLTPEQWKSHRSYSCQVTHEGSTVEKTVAPTECS
notes: pH-dependent anti-C2 antibody from a phage display library; also called WT
In the case of B1, the Kd [1] is reported as 142 nM, the binding result [2] is reported as “no binding” and the Kd [3] is reported as 19.8 nM. B1: no binding [4].
